Measurements: the supplement of paper PMC9732359
± gives the uncertainty stated by the source.

Assay: protein stability index of a GFP-peptide fusion (yeast GPS) (PSI 1-4); higher = more stable; sorted into four equal gates, so the index is relative within each strain
Procedure, shortened: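 For each peptide, the protein stability index sums the read frequency in every gate after multiplying it by the gate number. Read frequencies came from plasmids that were PCR-amplified from each gate and Illumina-sequenced, with reads assigned to strains by barcodes. The gates were four equal bins of GFP/Cherry fluorescence ratio applied to mid-log yeast in leucine-free medium carrying a pooled library of tiled 17-residue yeast protein peptides fused downstream of GFP on a Cherry-expressing plasmid.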

Sequence	protein stability index (doa10∆)	protein stability index (pdr5∆)	protein stability index (san1∆)	protein stability index (ubr1∆)
GYVIKVFNNGIVVLVPK [DIS3]	2.59 ± 0.092	2.38 ± 0.079	2.39 ± 0.077	2.82 ± 0.067
VLMGKNTMVRRAIRGFL [RPP0]	3.27 ± 0.26		3.34 ± 0.17	
LYGKRFFPYYVHTIIAG [PRE7]	1.15 ± 0.032	1.23 ± 0.039	1.13 ± 0.11	1.14 ± 0.041
QILPESQWNDSSIDKIE [SIR3]		3.42 ± 0.18		2.81 ± 0.12
QKKATMSAEEALVYSYI [RPC34]	1.43 ± 0.14	1.08 ± 0.099		1.36 ± 0.22
KKAVKELYEVDVLKVNT [RPL25]	3.01 ± 0.069	3.09 ± 0.073	3.1 ± 0.037	3.13 ± 0.049
DSTDNENSGKEMDEKSY [LIN1]		3.26 ± 0.14	2.88 ± 0.29	3.49 ± 0.14
RSISWAPSIGRWYQLIA [YGL100W/SEH1]	1.26 ± 0.072	1.15 ± 0.075	1.16 ± 0.12	1.11 ± 0.063
QNPENLLSEKILQYFEK [SIR3]	2.83 ± 0.079	2.81 ± 0.086	2.8 ± 0.054	3.2 ± 0.072
DRNNSTNQIFQSRRYNL [SIN4]	2.78 ± 0.047	2.93 ± 0.049	2.71 ± 0.053	2.83 ± 0.039
FLQGESPFSITFSVYHE [YMR129W/POM152]	2.4 ± 0.073	2.08 ± 0.056	2.64 ± 0.047	2.36 ± 0.052
SVKKAGASINSMKANTS [ARP7]	2.07 ± 0.052	2.46 ± 0.05	2.42 ± 0.054	2.25 ± 0.037
FISAARYKPKSHLWEID [RPC37]	3.02 ± 0.11	3.06 ± 0.082	2.71 ± 0.067	3.11 ± 0.069
EEGRAIPGEYITYALSG [RPS21B]	2.99 ± 0.073	3.1 ± 0.11	2.88 ± 0.078	2.96 ± 0.044
EREVFVDVKPKSPKERE [RPC25]		2.98 ± 0.17		3.34 ± 0.13
LGSGSLAAMAVLESHWK [PUP1]	3.24 ± 0.16	3.27 ± 0.14	2.64 ± 0.2	3.69 ± 0.18
QRVCLRSDSYMLHKVLE [RPT6]	2.84 ± 0.084	2.95 ± 0.073	2.81 ± 0.067	2.84 ± 0.047
HTTQIVNLEDNTQDLLL [YML103C/NUP188]	3.21 ± 0.11	3.35 ± 0.12	3.27 ± 0.069	3.07 ± 0.086
DLKFKRHKNKHIQGFPT [DSN1]	3.15 ± 0.13	3.38 ± 0.28	1.75 ± 0.12	2.98 ± 0.12
LDDDSIVNHEQDLPKIN [SRB4]	2.7 ± 0.14	2.92 ± 0.082	2.99 ± 0.09	2.81 ± 0.063
ERFQVMVLRKQKRYTVK [RPL14A]	2.37 ± 0.12	2.19 ± 0.1	2.21 ± 0.24	2.71 ± 0.11
YLLEELESYLIVHHPYQ [SSN8]	2.56 ± 0.058	2.45 ± 0.06	2.43 ± 0.056	2.36 ± 0.044
QNENLPSDKSDSMVDKE [SSN2]	3.07 ± 0.13	2.64 ± 0.096	2.73 ± 0.091	2.57 ± 0.077
FYLMVSSLSFGPENALN [YJL039C/NUP192]	1.68 ± 0.048	1.37 ± 0.047	1.39 ± 0.12	1.31 ± 0.051
RVLETTLVEFETIKMKE [BRN1]	2.12 ± 0.22	3.23 ± 0.14		1.34 ± 0.086
KERSIVVGRTTRSNPPF [REC8]	2.7 ± 0.055	2.7 ± 0.057	2.57 ± 0.081	2.65 ± 0.065
NEMLLKRVTKVKRLLFT [MTW1]	1.26 ± 0.054	1.56 ± 0.049	1.21 ± 0.11	1.42 ± 0.036

Sequence	protein stability index (doa10∆)	protein stability index (pdr5∆)	protein stability index (san1∆)	protein stability index (ubr1∆)
ATTGGLFGSKPQGSTTN [YGR119C/NUP57]	3.34 ± 0.1	3.37 ± 0.1	3.39 ± 0.12	3.55 ± 0.18
SAKEIAKASGCDDESGD [MCD1]	2.19 ± 0.094	1.8 ± 0.15	2.62 ± 0.12	2.86 ± 0.14
YSIPHPSENLLNIRIQT [RPC19]	2.1 ± 0.098	2.21 ± 0.078	2.65 ± 0.12	2.38 ± 0.11
GKPSFVFGASDKQAEGT [YOR098C/NUP1]	3.33 ± 0.13	3.07 ± 0.12	3.07 ± 0.12	3.29 ± 0.087
TSANGIVQFTYGGDGLD [RPO31]	2.68 ± 0.093	2.77 ± 0.092	2.24 ± 0.15	3.04 ± 0.064
VSIKDSTGCVVGLSQPD [YMR129W/POM152]	2.09 ± 0.047	2.32 ± 0.058	2.05 ± 0.066	2.28 ± 0.036
QIENLNEVCLEKENRFE [SMC4]	3.27 ± 0.17	3.48 ± 0.1	2.69 ± 0.23	3.4 ± 0.068
SLAILGMNLLSNLSQNV [SWI1]	2.44 ± 0.055	2.94 ± 0.058	2.69 ± 0.052	2.81 ± 0.046
FHFRAPSRIFYKALRGM [RPL16A]	1.97 ± 0.24	2.4 ± 0.18	2.27 ± 0.14	2.43 ± 0.14
FMDNSYDIDEIDHSDES [ESC2]			2.66 ± 0.14	2.82 ± 0.13
GETMWVPIKSSKSGRIF [RPN13]	2.3 ± 0.11	2.6 ± 0.15	2.81 ± 0.068	
LASAIASGLLRAYLSHS [CSN12]	1.85 ± 0.045	1.5 ± 0.052	1.62 ± 0.071	1.4 ± 0.054
FALIDYFYDLDVLKDGE [BRN1]	2.86 ± 0.049	2.76 ± 0.057	3.04 ± 0.061	2.79 ± 0.049
ERPAIEFETPTFLVSND [RPN14]	3 ± 0.063	3.14 ± 0.056	2.81 ± 0.06	2.9 ± 0.089
TIERSLIEEEVEQDEGQ [YCS4]	3.36 ± 0.24	3.27 ± 0.17	3.28 ± 0.084	3.5 ± 0.17
GLQNVRKVRTKKWKKYW [SWP82]	3.6 ± 0.2		3.26 ± 0.25	
YTQQQALEYIGAKVKTM [RET1]	1.97 ± 0.063	2.34 ± 0.072	2.25 ± 0.086	2.1 ± 0.059
ELQGYIELSVPDRQSMD [SRB5]	1.36 ± 0.23			1.17 ± 0.21
IYNELSYELIKEECQIE [CSN9]	2.47 ± 0.08	2.66 ± 0.06	2.73 ± 0.057	3 ± 0.048
MSNVVQARDNSQVFGVA [RPS14A]	1.89 ± 0.06	2.11 ± 0.056	1.94 ± 0.083	2.05 ± 0.041
DEDDDLDEDDVNADDDD [RPB4]	3.12 ± 0.1	3.13 ± 0.086	2.09 ± 0.16	3 ± 0.11
IDQDIHGIVFQHPFPLA [SSN2]	2.13 ± 0.044	2.25 ± 0.051	2.24 ± 0.059	2.64 ± 0.032
IVALSSEEINQYVTQIE [PRE6]	3.1 ± 0.053	2.97 ± 0.053	3.11 ± 0.037	3.05 ± 0.042
TTSERVSNENKKNIDYQ [RRI1]	2.98 ± 0.083	3.03 ± 0.09	3.13 ± 0.085	3.05 ± 0.18
EQNSSSAKPSQIPTVSS [SIR4]	2.99 ± 0.062	2.97 ± 0.051	2.97 ± 0.048	3.04 ± 0.05
RAGGAAASLIMPFLDNQ [PRE7]				1.11 ± 0.11
TYGVPGSENKRGSLDSE [NUT1]	3.31 ± 0.095	3.25 ± 0.11	3.23 ± 0.15	2.99 ± 0.074
